Source: patent US20250361298A1

Tests used:
[1] = biological target: Cynomolgus LY6G6D ectodomain fused to mouse IgG2A Fc (monovalent display, knob-in-hole) (cynomolgus); assay: SPR, Biacore 8K+, cyno LY6G6D-mouse Fc captured by anti-mouse antibody on CM5, antibody as analyte 50-0.7813 nM, 25 C
[2] = biological target: T1, Human LY6G6D ectodomain fused to mouse IgG2A Fc (monovalent display, knob-in-hole) (human); assay: SPR, Biacore 8K+, LY6G6D-mouse Fc captured by anti-mouse antibody on CM5, antibody as analyte 50-0.7813 nM, 25 C
T1 sequence (O95868 whole entry, looked up): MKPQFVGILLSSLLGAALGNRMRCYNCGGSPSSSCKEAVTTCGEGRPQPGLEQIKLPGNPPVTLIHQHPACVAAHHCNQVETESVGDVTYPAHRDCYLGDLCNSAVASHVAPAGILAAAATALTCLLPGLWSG

Cynomolgus LY6G6D ectodomain fused to mouse IgG2A Fc (monovalent display, knob-in-hole) (cynomolgus), sequence (O95868 other isoform, or with tags, fused parts or gaps limits assumed): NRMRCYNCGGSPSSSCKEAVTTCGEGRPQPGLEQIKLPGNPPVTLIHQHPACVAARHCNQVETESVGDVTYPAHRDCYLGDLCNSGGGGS

Kd [1]: 3.4 nM
koff [1]: 0.00038 s⁻¹
kon [1]: 112000 M⁻¹ s⁻¹
Kd [2]: 3.67 nM
kon [2]: 109000 M⁻¹ s⁻¹
B1: 20A12.QNTv12 (antibody, from another filing, V domains shown)
VH: EVQLLESGGGLVQPGGSLRLSCAASGFDFVNNAMIWVRQAPGKGLEWVSALSFADNTAYYATWASGRFTISRDSSKTTVYLQMNSLRAEDTAVYYCMRGDLWGPGTLVTVSS
VL: DIQMTQSPSTLSASVGDRVTITCQASESITRYLNWYQQKPGKAPKLLIYDASKLPSGVPSRFSGSGSGTEFTLTISSLQPDDFATYYCQSTSFRGRSYQNTFGGGTKVEIKR
